This experiment addresses HIV-1 Gag precursor Pr55Gag, full-length wild type (HIV-1) (UniProt P03348). As to the kind of experiment: co-sedimentation.

“luciferase-Vpr fusion protein (LucVpr) (from UniProt P05928 1-96) (natural protein)” returned a copies of Gag per LucVpr molecule in VLP (copies of Gag per LucVpr molecule) of 4.92.
“oligohistidine-tagged HIV-1 Vpr protein (from UniProt P05928 1-96) (natural protein)” showed a copies of Gag per Vpr molecule in VLP (copies of Gag per Vpr molecule) of 5.6.

These data come from PMC3207847, “Characterization of a Novel Type of HIV-1 Particle Assembly Inhibitor Using a Quantitative Luciferase-Vpr Packaging-Based Assay” (PLoS ONE, 2011).
